Test: 14C assay with IPTG-induced recombinant E. coli cells (14CO2 capture from [14C]-carboxyl-labeled dicamba)
Conditions: for Dicamba Decarboxylase Activity: IPTG-induced recombinant E. coli cells, [14C]-carboxyl-labeled dicamba, 14CO2 capture; for Enzymatic Detection level: dicamba decarboxylation activity of the protein of the given SEQ ID NO; for decarboxylation activity of dicamba: E. coli cell assay, 108 sequences tested

Row | Molecule | Dicamba Decarboxylase Activity | Enzymatic Detection level | decarboxylation activity of dicamba
1 | 34 (protein, Cupriavidus necator) MAQGKIGLEEHFAIPETLNDSAGFVPGDYWKELSRRLLDIQDDRLRQMDENGMEMMLLSLNAPAVQAVPDRKQACELAVRANDFLAEQVSRRPDRFQALAALPLQDPDFATVELTRCVNELGMRGALVNGFSQIDTPDNVVYYDAPQYASFWAAVEKLDVPFYLHPRNPIASWAQIYDGHPWLLGPTWAFGQETAVHALRLMASGLFDRHPALQIVLGHLGEGLPYSLWRIDNRNAWVKAPKTHPAKKTFRHYFQQNFHLTTSGNFHNQTLIDAILEIGADRILFSTDWPFENIDHAAKWFDSASISEADRTKIGRTNAMKLFKLVA | High | High | –
2 | 35 (protein, Burkholderia sp) MAFKASRKIALEEHFAIDATVQDSAGFVPPSYWAELKRRLLDIHDRRIDEMDRNGVELMVLSLNAPTVQAVPNIKDAYDLSRRANDFLAEQIVKRPERFKGFAALPMQSPDLAARELERCVKELNFVGALVNGFSQVEESGTALYYDLPQYRQFWSVVQALDVPFYLHPRNPLPAHAPIYEGHPWLLGPTWAFGQETAVHALRLMGSGLFDEYPELKIILGHMGEGLPYSMWRIDNRNAWVETQPNYPAKKRIAEYFHKNFWLTTSGNFRTQTLIDAMLEIGSDRILFSTDWPFENVDHAAQWFDDAAISENDRIKIARTNAARLFKLEP | High | High | –
3 | 33 (protein, listed as Rhizobium leguminosarum) MAQGKIALEEHFAIPETLQDSAGFVPGDYWKELSARLLDIQEKRLRLMDAHGIEKMILSLNAPAVQAIPDRAKALEISRRANDFLAEQCVKNPNRFLGFAALPLQDPDAATQELQRCVTTMGFVGALVNGFSQEGDGTTPLYYDLPQYRSFWAEVEKLNVPFYLHPRNPLPQDSRIYAGHSWLMGPTWAFAQETAVHALRLMGSGLFDEHPALRIIVGHMGEGLPYMMWRIDNRNAWVKVEKSYPAKRPIADYFNENFYITTSGNFRTQSLIDAMLEIGADRILFSADWPFENIDHAANWFDSATISEADRLKIGRTNAVSLFKLDR | High | High | –
4 | SEQ ID NO:5: possible o-pyrocatechuate decarboxylase, Staphylococcus aureus subsp. aureus MN8 (protein, listed as Staphylococcus aureus) MAQNNMEANQMKSITFEEHYVIEDIQKETMNAISADPKGVPMKVMLEGLEKKTGFTNADELSHHDERIQFMNNQDVQIQVLSYGNGSPSNLVGQKAIELCQKANDQLANYIAQYPNRFVGFATLPINEPEAAAREFERCINDLGFKGALIMGRAQDGFLDQDKYDIIFKTAENLGVPIYLHPAPVNSDIYQSYYKGNYPEVTAATFACFGYGWHIDVGIHAIHLVLSGIFDRYPKLNMIIGHWGEFIPFFLERMDEALFAEHLNHPVSYYFKNNFYITPSGMLTKPQFDLVKKEAGIDRILYAADYPYIEPEKLGVFLDELGLTDEEKEKISYTNGAKLLGLSSNN | – | – | showed decarboxylation activity of dicamba
5 | SEQ ID NO:16: possible o-pyrocatechuate decarboxylase, Staphylococcus aureus subsp. aureus TCH60 (protein, listed as Staphylococcus aureus) MAQNNMEANQMKSITFEEHYVIEDIQKETMNAISADPKGVPMKVMLEGLEKKTGFTNADELSHHDERIQFMNNQDVQIQVLSYGNGSPSNLVGQKAIELCQKANDQLANYIAQYPNRFVGFATLPINEPETAAREFERCINDLGFKGALIMGRAQDGFLDQDKYDIIFKTAENLGVPIYLHPAPVNSDIYQSYYKGNYPEVTAATFACFGYGWHIDVGIHAIHLVLSGIFDRYPKLNMIIGHWGEFIPFFLERMDEALFAEHLNHPVSYYFKNNFYITPSGMLTKPQFDLVKKEAGIDRILYAADYPYIEPEKLGVFLDELGLTDEEKEKISYTNGAKLLGLSSNN | – | – | showed decarboxylation activity of dicamba
6 | SEQ ID NO:4: o-pyrocatechuate decarboxylase, Lactobacillus buchneri NRRL B-30929 (protein, listed as Lactobacillus buchneri) MAKVITLEEHFSSQKLGQKMAEVLPKRPIGNVSPKMQDYMQRSLPPEAELEDVTGSRIQWMDQHQISMQILSYGNQNPQNSDPKFAVELTKLANDELAKAVAKAPDRFRAFASLPVSHPTDAAAELKRGVEELGFKGAMLVRPTSQAHPFFDDPFYLPIFEAAANLNVPVYLHPSFPDSQIIDYYYSNGPWDDKVSGILGTAGYGWHTDVGIQTVRLLLSGVFEKYPNLKLISGHWGEFASFALERMDQVMYPETNLSEPISKIYRDHVYVTPSGILTEPQLKFVKDEVGIEHLLYSIDYPYIKPENSGSFIESSPLTDEEKELFAHGNAEKLLQL | – | – | showed decarboxylation activity of dicamba
7 | SEQ ID NO:19: 2,3-dihydroxybenzoic acid decarboxylase, putative, Talaromyces marneffei ATCC 18224 (protein, listed as Talaromyces marneffei) MATPIITLEEHYISSAIRDASETDHYAVFPSQIISKLNTLSTERLQDLDNGHVSLQVISHGPGAQPPYLCQAANDELASAISANPTRFAGFALLPIAEPQLAVQELERCITQHKFVGALIDNHTNGQFYDDQKFWPVFEKAQELDAPIYVHPSYPDEESGVAAHYRGNYDDRIAAALGAYGWGWHSDTALSILRLFAAGLFDTYPNIKIIIGHMGEMLPFQLERVIGIASRFGRSRGLREVWTQNIWVTTSGMFALAPLACLLQTMPIERVLYSVDYPFSANEKGFAFLEEIKKSGLIKEGEDWERFLYKNAQELLKVNV | – | – | showed decarboxylation activity of dicamba
8 | SEQ ID NO:21: reversible 2,6-dihydroxybenzoic acid decarboxylase, Agrobacterium tumefaciens (protein, listed as Agrobacterium tumefaciens) MAQGKVALEEHFAIPETLQDSAGFVPGDYWKELQHRLLDIQDTRLKLMDAHGIETMILSLNAPAVQAIPDRKKAIEIARRANDVLAEECARRPDRFLAFAALPLQDPDAATQELQRCVNDLGFVGALVNGFSQEGDGQTPLYYDLPQYRPFWGEVEKLDVPFYLHPRNPLPQDSRIYDGHPWLLGPTWAFAQETAVHALRLMASGLFDAHPRLNIILGHMGEGLPYMMWRIDHRNAWVKLPPRYPAKRRFVDYFNENFHITTSGNFRTQTLIDAILEIGADRILFSTDWPFENIDHASDWFNATTIAEADRVKIGRTNARRLFKLDGR | – | – | showed decarboxylation activity of dicamba
9 | SEQ ID NO:88: o-pyrocatechuate decarboxylase, Starkeya novella DSM 506 (protein, listed as Starkeya novella) MARKIALEEHFTTPELAGKYVARPTQSDALFADIERRLADFDELRLEMMDRAEIDLMVLSVTTPGVQGVRDTGEAIRLARGANDFLAREVQKRPSRYAGFAHLAMQDAEAAATELERAVRELGFRGALINGQTNGHYLDEDQYAPFWERVQELDVPVYLHPGNMADSPAMFAHRPELGGPIWAWTAETAAHALRLVFGGTFTRFPGAKVILGHMGETLPFLLWRLDSRREFDLGEKLAPDALPSAIIKRNIAVTTSGVCDPAPLVAALQALSDDNVMFSVDYPYEDPQLASKFIETAPIGEETRAKVCHGNAERLLGL | – | – | showed decarboxylation activity of dicamba
10 | SEQ ID NO:92: amidohydrolase 2, Chitinophaga pinensis DSM 2588 (protein, listed as Chitinophaga pinensis) MARIVTLEEHVSFPEMTALLPEEILKNRKQSGAALQMQEKLADITGERLTSMKAAGISMQVLSVENTDVYLLPDSLAPAFAAKYNDLLADKISSHSDAFAAFAMLPMTVPEAAADELERAVKTHGFCGAMIKGLINGVFLDAPKFAPVFACAEKLGVPLYIHPGIPPKEVIDAYYSNVGDTKGPNEAIACYGWGWHSETAIHILRLLAAGIFDKYPQLNIIIGHMGEMLPMMWERSNRVFQPGNNGKNQRTLIETFRKQLYITTSGIFTQPPLQIAIDTIGIDNILFSIDYPFSSNQMGIDFLTKAALPAEQLAKMAHGNADRILKF | – | – | showed decarboxylation activity of dicamba
11 | SEQ ID NO:26: o-pyrocatechuate decarboxylase, Variovorax paradoxus EPS (protein, listed as Variovorax paradoxus) MATHMAPMKNKIALEEHFAIDLTIADSQVYARPEVWQGLKSNLLDFEQQRLEKMDEWGTEFSILSLNSPAVQGIPDAKRAIEVAQRANDVLAEQVKRHPTRFGGFAALPMQDPEASARELERCVNQLGFHGFLVNGFSQVGDENIVVYYDDARFNDFWTAAAALKKPFYMHPRDPLLAREPIYDGAHWLTGPTWAFAMETAIHALRLMSSGMFDRHPALQMILGHFGEGIPFNIWRVDHILRKGRRGMPCDKEIGEYLRSNVHITTSGNFRTPTLLSTMLEVGSDRIMYSVDYPFEKHEDAARWFDTCEISENDRQKIGRDNARKLFGLK | – | – | showed decarboxylation activity of dicamba
12 | SEQ ID NO:89: amidohydrolase, Erwinia billingiae Eb661 (protein, listed as Erwinia billingiae) MATNRRDFLKNATAVMAGSTVFAGSSHFASAAAVEPAAVQPPRRIIALEEHFMLPEFVGYLHETQQNLRNGLVDKVVTPLSDFGKGRLEIMDKNGVDFAVLSLSGPGVQAEPDRVKAVRLARYANDKLATEMQKNPRRYGGFAHLAMQDPLAAANELERCVKQLHMQGGMINGETDGLYLDDRRYDVFWERVEALNVPIYIHPGNPPDYPHMFAGHPEMWGPVWSWAVETCSHALRLIFSGTFDRYPGARVILGHMGETLPIQLWRLDSRYQIANQTFAIKHPPSWYAKKNITITTSGVCNDAALRCALDSMGSENVMFSIDYPFESTEIAVNWLKTANITEQERNAVAWGNATSILRLGA | – | – | showed decarboxylation activity of dicamba
13 | SEQ ID NO:22: possible o-pyrocatechuate decarboxylase, Staphylococcus epidermidis M23864: W1 (protein, listed as Staphylococcus epidermidis) MAKSINFEEHYVVDDIQKETMKYMSSDPNGVPMQTMLKGLEQKSGFTNADDITKHDERIKFMDEHDVEMQVLSYGNGAPSNLEGERAIELCQQANDTLAKYVNEHPDRFVGFATLPINEPQAAVEEFKRCIKELGFKGALIMGHPKNGFLDQDQYDDLFATAEALNVPIYLHPSPVQSDVYQAYYKGNYSDVTAATFACFGYGWHVDVGIHAIHLVLSGVFDRHPNLNMIIGHWGEFVPFFLERMDDILFADHLEHPISYYFKNNFYITPSGMLTKPQFDLVKAEVGVDRILYSADYPYVEPDKLGTFLDELDLTEEEKEKISYKNGAKLLGLEK | – | – | showed decarboxylation activity of dicamba
